In patent US20250034594A1, “RNA-GUIDED GENOME RECOMBINEERING AT KILOBASE SCALE” (THE BOARD OF TRUSTEES OF THE LELAND STANFORD JUNIOR …, priority 2021, published 2025):

Tests used:
Type in all cases: cell-based
[1] = test system: gene editing with Cas9 and dCas9; experiment: Screen of 322 new SSAP proteins, activity across all experiments (Cas9 and dCas9, Table 5); set-up: scale not given here
Outline: (§1)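 First, 322 new single-strand annealing proteins are identified from sequences. Next they are synthesized. Finally each is assayed for editing in combination with Cas9 and, separately, dCas9.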

gene editing with dCas9 = experiment: Screen of 322 new SSAP proteins, gene editing activity with dCas9 (Table 5); set-up: dCas9 with SSAP activity: scale not given here
Outline: as §1

gene editing with Cas9 = experiment: Screen of 322 new SSAP proteins, gene editing activity with Cas9 (Table 5); set-up: Cas9 with SSAP activity: scale not given here
Outline: as §1

B1: SSAP_24: SEQ ID NO: 193 (protein)
chain: TNNQIVEAKGDFLTNPQLLNSGIIRKYLDPQGKASDEELAYFIAQAKAQNLNPFTKEIYFIKYGTQPAQIVTAKSAFEKKADSHPQFDGKEAGVIYLMDGEIKYSKGAFIPKGAEILGGWAKVYRKDRTYPTETEVSFEEYDNSKIRARVKELTQQGKDVTYPVMNSYGKPIGENNWDTMPCVMIRKVALVSAYREAFPAELGASYEADEIQLDNTPKDVTPQESREDVVARKMAEIEQFNKEQEANHADPEPTQNEDPIQGELLDGELEY
Activity across all experiments [1]: −4.480
dCas9 with SSAP activity (gene editing with dCas9): −5.319
dCas9 with SSAP activity (normalized) (gene editing with dCas9): −0.711
Cas9 with SSAP activity (gene editing with Cas9): −3.642
Cas9 with SSAP activity (normalized) (gene editing with Cas9): −0.681

B2: SSAP_217: SEQ ID NO: 386; Streptomyces noursei (protein, listed as Streptomyces noursei)
chain: TSPIRAAVARRAGDPAALISQYTADFAAVLPSHIKPATFVRLAQGILRRDEKLAQAAANDPGQFMSVLLDAARLGLEPGTEAYYLVPFKGRVQGIVGWQGEIELMYRAGAISSVIVETVREDDVFVWTPGLVDRETPPRWEGPMSYPFHEVEWAGDRGPLRLVYAYAVMKGGATSKVVVLNAQDIERAKKTSQGADSPSSPWRQHEAAMWSKTAVHRLAKYVPTSAEYITAQVRAVRQADALSAPPVEEVVDVELVGDGQEQEARR
Activity across all experiments [1]: −3.758
dCas9 with SSAP activity (gene editing with dCas9): −5.577
dCas9 with SSAP activity (normalized) (gene editing with dCas9): −0.839
Cas9 with SSAP activity (gene editing with Cas9): −1.938
Cas9 with SSAP activity (normalized) (gene editing with Cas9): −1.023

B3: SSAP_157: SEQ ID NO: 326; Pseudoflavonifractor sp. An184 (protein, listed as Pseudoflavonifractor sp.)
chain: ATEKAIQRATGRAPALENRPALQQYIKQMSGEIKKALPSVMTPERFTRIVLSALSTNPKLAETTPQSFLGAMMTAAQLGLEPNTPLGQAYLLPYWNSKANAYECQFQLGYKGLLDLAYRSGEISVIQAHVVYSEDQFSYSFGLKPELKHIPAGEERGEPVYVYAIFHTKDGGYGFEVCSIDDIRAHAQRYSKSFQNGPWQTNFEEMAKKTVLKRVLKYAPLKSEFLRGLAQDETIKQEISEDMYMVEAAYAEPDVSSAEND
Activity across all experiments [1]: −4.633
dCas9 with SSAP activity (gene editing with dCas9): −5.734
dCas9 with SSAP activity (normalized) (gene editing with dCas9): −0.898
Cas9 with SSAP activity (gene editing with Cas9): −3.533
Cas9 with SSAP activity (normalized) (gene editing with Cas9): −1.181

B4: SSAP_182: SEQ ID NO: 351; Lacrimispora sphenoides (protein)
chain: ADVKQELEKRAAGSGGQSVKLTKNMTIVDMVKALEPEIKRALPCILTPERFSRMALSAINNTPKLGECTPMSFIAALMNAAQLGLEPNTPLGQAYLIPYKNKGVLECQFQLGYRGLIDLAYRNERMQSIEAQVVYDNDEFSYELGLHPSLIHRPTFDEPGEIQAFYAIFRLDNGGFRFEVMSKNYVDSLCHALFKSIYFRFQSLEK
modifications: Lacrimispora sphenoides
Activity across all experiments [1]: −3.606
dCas9 with SSAP activity (gene editing with dCas9): −5.663
dCas9 with SSAP activity (normalized) (gene editing with dCas9): −0.742
Cas9 with SSAP activity (gene editing with Cas9): −1.549
Cas9 with SSAP activity (normalized) (gene editing with Cas9): −1.689

B5: SSAP_156: SEQ ID NO: 325; Bacillus sp. AFS017336 (protein, listed as Bacillus sp.)
chain: ATNESLKNQITNKKTGEVPLTPAQQVSSYLKAYEGTFQQIAPKHFNTERFQRIALSEIRKNPKLLECSVPSLMSAVLQSVKLGLEPGLFGQAYLIPYGKEVQFQIGYRGLIELSQRSGRILKIQAREVYENDEFEVSYGIDDNIIHKPALDVDRGKVRLYYAVAWFKDGGAQFELMSISDVEKHRDKFSKTAKFGPWKDHFDEMAKKTVLKKLVKQLPMDVEFQEAVQEDETVRKTITDEPEILQAEFEIVDQPEISVE
Activity across all experiments [1]: −2.272
dCas9 with SSAP activity (gene editing with dCas9): −5.389
dCas9 with SSAP activity (normalized) (gene editing with dCas9): −0.877
Cas9 with SSAP activity (gene editing with Cas9): 0.844
Cas9 with SSAP activity (normalized) (gene editing with Cas9): 2.230

B6: SSAP_13: SEQ ID NO: 182 (protein)
chain: ANELGIFSVDNLNMTTIKQYLDGGGKASDAELVLLINLCKQNNMNPFMKEVYFIKYGNQPAQIVVSRDFYRKRAFQNPNFVGIEVGVIVLNKDGVLEHNEGTFKTHEQELVGAWARVHLKNTEIPVYVAVSYDEYVQMKDGHPNKMWTNKPCTMLGKVAESQALRMAFPAEFSGTYGEEEFPEPEKEPREVNGVKEPDRAQIESFDKEDYAAKKIEELKEKAQPQKEVVEETGEVIDEEPLEGF
Activity across all experiments [1]: −3.004
dCas9 with SSAP activity (gene editing with dCas9): −5.545
dCas9 with SSAP activity (normalized) (gene editing with dCas9): −0.758
Cas9 with SSAP activity (gene editing with Cas9): −0.463
Cas9 with SSAP activity (normalized) (gene editing with Cas9): −0.403

B7: SSAP_60: SEQ ID NO: 229 (protein)
chain: ASKNEAIEVSPAEIASVKEKPASIVKAEKAKKEPCALVKYEDAEGREVVLTREDIINTISSNPRITDKEIKLFIELARAQKLNPFTREIFITKYGDYPATFIVGKDVFTKRAQSNPLFKGMQAGIIVQRGNAVDQREGSATFGDEMLIGGWCKVYVQGYDVPIYDSVSFNEYAARKTDGTLNAMWASKPATMIRKVAIVHALREAFPSDFQGLYDQSEMGLSGQGGE
Activity across all experiments [1]: 0.534
dCas9 with SSAP activity (gene editing with dCas9): 0.311
dCas9 with SSAP activity (normalized) (gene editing with dCas9): 0.109
Cas9 with SSAP activity (gene editing with Cas9): 0.757
Cas9 with SSAP activity (normalized) (gene editing with Cas9): 0.560

B8: SSAP_174: SEQ ID NO: 343; Hespellia stercorisuis (protein, listed as Hespellia stercorisuis)
chain: ADIKEELAKKVAEGTEDKKKLTKSMSIADLIKAMEPEIKKALPEVITPERFTRMALSALNTTPKLKECTQTSFLTALMNAAQLGLEPNTPLGQAYLIPYKNKGNLECQFQIGYKGLIDLSYRNRQMQIIQAQAVYENDEFEYELGLNPVLVHRPALQNRGAVKLFYGIFKLTNGGFGFEVMSKADMDAYAKEYSKAFDSSFSPWKSNYIGMAKKTVIKQAIKYAPLKTDFRKALSTDETIKTEFCEDMSEVQCKDIWDTEYKERSA
Activity across all experiments [1]: −4.727
dCas9 with SSAP activity (gene editing with dCas9): −5.563
dCas9 with SSAP activity (normalized) (gene editing with dCas9): −1.144
Cas9 with SSAP activity (gene editing with Cas9): −3.891
Cas9 with SSAP activity (normalized) (gene editing with Cas9): −0.617

B9: SSAP_128: SEQ ID NO: 297; Viridibacillus sp. FSL H8-0123 (protein, listed as Viridibacillus sp.)
chain: ATNNALKEQMKQAPSKEVKPEQSLNTLLKRMGPEIQRALPKHMDADRIARIALTAVRNTPKLLDCDQMSFVAALMQSAQLGVEPNTGLGQAYLIPYGKQVQFQLGYKGLIDLAVRSGQYKAIYAHEVYEDDEFSFAYGLHKDLVHVPAPNPTGEPIGYYAVYHLQNGGYDFVYWTRERIDQHAHKFSMAVQKGWTSPWKTNFDAMAKKTVLKEVLKYAPKSIEMQKVVDADETVKTDVSDDMSNVIDVTDYTVMDQEQETIQEPTK
Activity across all experiments [1]: −2.230
dCas9 with SSAP activity (gene editing with dCas9): −5.299
dCas9 with SSAP activity (normalized) (gene editing with dCas9): −0.965
Cas9 with SSAP activity (gene editing with Cas9): 0.839
Cas9 with SSAP activity (normalized) (gene editing with Cas9): 0.272

B10: SSAP_99: SEQ ID NO: 268; Pseudomonas stutzeri (protein, listed as Pseudomonas stutzeri)
chain: STENVAPFSQKDMQQATGQQVKPRSPADSLAAMLASPKMKAQFAAALPKHMTAERMARIVTTEIRKTPALVKCDQHSFLGSVIQCAQLGLEPGNSLGHAYLLPYGNQVQLIIGYRGMIDLARRSGQIVSLSARTVREHDEFDYQLGLHEDLTHKPFEGEHAGEITHVYAVARLQGGGVQFEVMSKAQVEAVRAQSKAGKSGPWVSHWEEMAKKTVIRRLFKYLPVSVEIQRAVTLDEAAEAGLPQGNEYVFDGDFEVVNDASGAQQ
Activity across all experiments [1]: −4.570
dCas9 with SSAP activity (gene editing with dCas9): −5.333
dCas9 with SSAP activity (normalized) (gene editing with dCas9): −0.891
Cas9 with SSAP activity (gene editing with Cas9): −3.807
Cas9 with SSAP activity (normalized) (gene editing with Cas9): −0.873

B11: SSAP_89: SEQ ID NO: 258; Pantoea brenneri (protein, listed as Pantoea brenneri)
chain: SNQPPIASADLQKTQQSKQVANKTPEQTLVGFMNQPAMKSQLAAALPRHMTADRMIRIVTTEIRKTPQLAQCDQSSFIGAVVQCSQLGLEPGSALGHAYLLPFGNGRSKSGQSNVQLIIGYRGMIDLARRSGQIVSLSARVVRADDEFSFEYGLDENLVHRPGENEDAPITHVYAVARLKDGGTQFEVMTVKQVEKVKAQSKASSNGPWVTHWEEMAKKTVIRRLFKYLPVSIEMQKAVVLDEKAESDVDQDNASVLSAEYSVLESGDEATN
Activity across all experiments [1]: 0.393
dCas9 with SSAP activity (gene editing with dCas9): 0.225
dCas9 with SSAP activity (normalized) (gene editing with dCas9): 0.240
Cas9 with SSAP activity (gene editing with Cas9): 0.562
Cas9 with SSAP activity (normalized) (gene editing with Cas9): 0.533

B12: SSAP_189: SEQ ID NO: 358; Asaia sp. W19 (protein, listed as Asaia sp.)
chain: SNALATPTEKLRTQITSMTGEFRNALPSHIKPEKFQRVVMTVVQQNQGLMNADRKSLLASCLKCAADGLIPDGREAALVMFGQQVQYMPMLAGIQKRIRNSGEIASIQAHVIYENDHFIWHQGIDASIEHRPLFPGDRGKAIGAYAVAKFKDGSDPQFEVMDVAAIEKVRAVSRAGKSGPWVQWWDEMARKTVFRRLSKWLPMDTEAEDLMRRDDENDAQDVAAPTIRVEAEAPSKLDALEHDDDGVVLEETRELEGSAA
Activity across all experiments [1]: −3.046
dCas9 with SSAP activity (gene editing with dCas9): −5.652
dCas9 with SSAP activity (normalized) (gene editing with dCas9): −0.952
Cas9 with SSAP activity (gene editing with Cas9): −0.440
Cas9 with SSAP activity (normalized) (gene editing with Cas9): −2.025

B13: SSAP_115: SEQ ID NO: 284; Lacrimispora amygdalina (protein, listed as Lacrimispora amygdalina)
chain: AVDVKNELERKASGQNSQVKLTKSMTIADMVKALEPEIKRALPAVLTPERFTRMALSAINNTPELAGCTPMSFIAAMMNAAQLGLEPNTPLGQAYLIPYKNKGVLECQFQIGYKGMIDLAYRTGQIQVIQGQAVREFDYFEYQYGLDPKLVHRPGEEERGEITFIYGLFRLSNGGYGFEVSNKADMDAFAAKYSKSFGSKYSPWTENYEDMAKKTVIKRALKYAPVSVDFQKAMSMDETIKTEISVDMSEIRNECPEISENGEAA
Activity across all experiments [1]: −4.992
dCas9 with SSAP activity (gene editing with dCas9): −5.725
dCas9 with SSAP activity (normalized) (gene editing with dCas9): −1.307
Cas9 with SSAP activity (gene editing with Cas9): −4.259
Cas9 with SSAP activity (normalized) (gene editing with Cas9): −0.733
